This is an account of results in publication PMC8528238 (Nature, 2021).

In the assay the target is batCoV-SHC014 S-2P (Bat SARS-like coronavirus RsSHC014, UniProt U5WLK5, stabilised). Nature of the assay: ELISA. For orientation: In an ELISA, binding on a coated surface is turned into a signal by an enzyme label.

B1: DH1047, cross-neutralizing RBD antibody (antibody, V domains shown)
VH: QVQLVQSGAEVKKPGASVQVSCQASANTFTNHYIHWVRQAPGQGLEWMGIIYPTGGNTIYAQGFQGRVTMTRDTSLNTIYLELSSLRSEDTAVYYCARDVRVDDSWSGYDLLSGGTYFDYWGQGTLVTVSS
VL: not shown
Take B1: the binding result is given as “binds”.
